For 6 molecules, binding result, Kd and binding signal results are on record in PMC4344510.

Read-outs that look alike come from different tables or passages of the source.

Series [1] addresses T1, Hfq N28A (Escherichia coli, UniProt P0A6X3 1-102, N28A). In words: fluorescence polarization.
Series [2] addresses Hfq F42S (Escherichia coli, UniProt P0A6X3 1-102, F42S). In words: fluorescence polarization.
For series [3], the target named is T2, Hfq WT (Escherichia coli, UniProt P0A6X3 1-102). Put plainly: fluorescence polarization.
The target of series [4] is T3, Hfq N48A (Escherichia coli, UniProt P0A6X3 1-102, N48A). In words: fluorescence polarization.
The target of series [5] is T1, Hfq N28A. In words: fluorescence polarization. The source holds these as a separate data set.
The target in series [6] is T3, Hfq N48A. In words: fluorescence polarization. The source holds these as a separate data set.
Series [7] addresses T2, Hfq WT. In words: fluorescence polarization. The source holds these as a separate data set.
For series [8], the target named is Hfq65 R16A/R17A (Escherichia coli, UniProt P0A6X3 1-65, R16A;R17A). Put plainly: NMR.
The target in series [9] is T1, Hfq N28A. In words: fluorescence polarization. This is another data set of the same source.

As to AACUAAA (ssRNA) [Ads (FAM)], the binding result in series [1] and in series [2] was “binds” in each case. In addition, the Kd in series [3] stood at 1490 nM; in [4] it was 92.8 nM.
Turning to AAAAAAA (ssRNA) [A7 (FAM)], the results for the binding signal in series [5] and in series [6] were roughly 40 fold weaker than WT and roughly 27 fold weaker than WT, respectively.
As to AAUAACUAAA (ssRNA) [OxyS 65-74 10-nt], binding in [7] was put at a Kd of 13 nM.
For AUAACUA (ssRNA) [Aus], the binding result in [8] is on record as “binds”.
Turning to AUAACUA (ssRNA) [Aus (FAM)], in series [9], the binding signal is roughly 6 fold weaker than WT. The binding result in series [2] is listed as “binds”. Also, the values for the Kd in series [7] and in series [4] were 22 nM and 16.8 nM, respectively.
For the molecule AACUAAA (ssRNA) [Ads], the binding result in series [8] was “binds”.
